Assays:
[1] = test system: H2810; test: rTRAIL response, viability assay, H2810; assay type: cell-based, Human; conditions: BAP1 Wild-type
Procedure: (§1) Manual “single dose” combination screening was undertaken using 96 well formats. Cells were plated on day 1 in previously optimized seeding densities in 180 μl if media. On day 2 20 μl of a 10× concentration of […] was added. Cells were then allowed to grow for 72 hrs or 6 days and fixed at the end of the assay. Drug wells were compared to DMSO treated control wells.
(§2) Single agent high throughput 5 point viability screening was undertaken in 384 well formats using robotic liquid handling with fixing with 4% paraformaldehyde and staining for viability with Syto60 nucleic acid dye (Invitrogen) (see below). Single agent dose response curves were derived for each library of 85-95 drugs according to the experiment used, and log IC50 or area under the curve (AUC) metrics were derived for each library compound in each cell line according to a previously derived formula [18].
(§3) Adherent cell lines were seeded 24 hours before drugging. Cells were trypsinised and counted before seeding at the optimal density for the size of well (96 or 384) and duration of assay. 72 hr after drug treatment cells were fixed with 4% paraformaldehyde for 30 minutes. […] Quantification of fluorescent signal was achieved using excitation/emission wavelength of 630/695 […].

[2] = test system: H513; test: rTRAIL response, viability assay, H513; assay type: cell-based, Human
Procedure: as §1, §2, §3

[3] = test system: H2818; test: rTRAIL response, viability assay, H2818; assay type: cell-based, Human; conditions: BAP1 Wild-type
Procedure: as §1, §2, §3

[4] = test system: BAP1 mutant cell lines (H2722, H2461, H28 and H2731); test: Annexin V/DAPI cell death assay, BAP1 mutant cell lines; assay type: cell-based, Human; conditions: TRAIL 0-1000 ng/ml, 24 hours
Procedure: MPM cell lines were treated with a dose range from 0.5 ng/ml to 100 ng/ml and cell viability was measured using Syto-60 assay. Based on their cell viability, the cell lines were classified into resistant (red), partially sensitive (orange) and sensitive (green). Cell lines were western blotted to probe the expression of BAP1 protein expression. […] Three BAP1 wild-type cell lines (MPP-89, H2869 & H2818) and four BAP1 mutant cell lines (H2722, H2461, H28 and H2731) were treated with TRAIL (0-1000 ng/ml) for 24 hours and cell death quantified using an Annexin V/DAPI cell death assay.
Adherent mesothelioma cell lines were plated in a 96 well plate at approximately 10000 cells per well. Cells were plated and given 1 day to adhere at which time drug was added. After 48 hrs media, including floating cells, was collected from each well. The remaining adherent cells were washed with PBS and mobilised with 0.05% trypsin in EDTA. All cells were collected into tubes containing the previously removed media and pelleted by centrifugation (300 g, 5 minutes). […] Annexin V−/DAPI− cells were judged to be viable, AnnexinV+/DAPI− cells were considered to be undergoing apoptosis (early apoptotic phase), and Annexin V+/DAPI+ cells were considered late apoptotic or necrotic, and recorded as dead.

[5] = test system: HCC1187; test: rTRAIL viability, breast cancer cell line HCC1187; assay type: cell-based; conditions: nonsense mutation in BAP1
From the text: (§4) FIG. 8A is a graph showing the effect of rTRAIL on the viability of various cancer cell lines. Bladder (RT4) and Breast (HCC1187) cancer cell lines with nonsense mutations in BAP1 show sensitivity to rTRAIL while renal cell cancer cell lines (769P & RCC10RGB) with missense mutation and wild-type renal (BB65RCC) and bladder cancer (SW1710) cell lines are resistant to TRAIL.

[6] = test system: H2722; test: rTRAIL response, viability assay, H2722; assay type: cell-based, Human; conditions: BAP1 HomDel, homozygous
Procedure: as §1, §2, §3

[7] = test system: NCI-H2052; test: rTRAIL response, viability assay, NCI-H2052; assay type: cell-based, Human; conditions: BAP1 Wild-type
Procedure: as §1, §2, §3

[8] = test system: 769P; test: rTRAIL viability, renal cell cancer cell line 769P; assay type: cell-based; conditions: 769P renal; BAP1 missense mutation
From the text: as §4

[9] = test system: MSTO-211H; test: rTRAIL response, viability assay, MSTO-211H; assay type: cell-based, Human; conditions: BAP1 Wild-type
Procedure: as §1, §2, §3

[10] = test system: H2795; test: rTRAIL response, viability assay, H2795; assay type: cell-based, Human; conditions: BAP1 Essential Splice, heterozygous
Procedure: as §1, §2, §3

[11] = test system: H2369; test: rTRAIL response, viability assay, H2369; assay type: cell-based, Human; conditions: BAP1 Wild-type
Procedure: as §1, §2, §3

[12] = test system: H2818; test: Cell death response to rTRAIL after BAP1 shRNA knockdown in H2818; assay type: cell-based, Human; conditions: H2818 BAP1 wild-type line
Procedure: (§5) Adherent mesothelioma cell lines were plated in a 96 well plate at approximately 10000 cells per well. Cells were plated and given 1 day to adhere at which time drug was added. After 48 hrs media, including floating cells, was collected from each well. The remaining adherent cells were washed with PBS and mobilised with 0.05% trypsin in EDTA. All cells were collected into tubes containing the previously removed media and pelleted by centrifugation (300 g, 5 minutes). Cells were then re-suspended in 1× Annexin V binding buffer with 10 μl/1 ml concentration of Annexin V-647 antibody (Invitrogen) and incubated for 15 minutes at room temperature. DAPI ([…]) was then added to each sample before flow cytometry analysis as below. Annexin V−/DAPI− cells were judged to be viable, AnnexinV+/DAPI− cells were considered to be undergoing apoptosis (early apoptotic phase), and Annexin V+/DAPI+ cells were considered late apoptotic or necrotic, and recorded as dead.
Lentivirus encoding shRNA targeting BAP1 was generated as per the lentivirus production protocol above. MPM cells (H2818) were transduced and treated with puromycin […] until a pure population was achieved. Immunoblotting was performed to assess efficacy of the shRNA knockdown.

[13] = test system: NCI-H2452; test: rTRAIL response, viability assay, NCI-H2452; assay type: cell-based, Human; conditions: BAP1 Substitution - Missense, homozygous
Procedure: as §1, §2, §3

[14] = test system: SW1710; test: rTRAIL viability, bladder cancer cell line SW1710; assay type: cell-based; conditions: BAP1 wild-type
From the text: as §4

[15] = test system: H2803; test: rTRAIL response, viability assay, H2803; assay type: cell-based, Human; conditions: BAP1 Wild-type
Procedure: as §1, §2, §3

[16] = test system: NCI-H226; test: Annexin V/DAPI cell death assay, H226 parental and BAP1-transduced lines; assay type: cell-based, Human
Procedure: FIG. 5A is an immunoblot for BAP1 protein in BAP1 null mesothelioma lines following transfection with empty vector and BAP1 expression vector. […] FIG. 5C is a graph showing the effect of rTRAIL on cell viability of an untransduced H226 cell line, a BAP1 (transduced) cell line, and a H226 cell line with the NLS deleted.
Untransduced BAP1-negative H226 cells, BAP1-expressing and catalytically dead BAP1-expressing H226 cells were treated with 100 ng/ml of FASL, TRAIL and TNF-alpha for 24 hours and cell death was quantified by Annexin V/DAPI assay. *p<0.05 indicating significant difference between untransduced H226 cells H226 BAP1 expressing cells. NS no significant difference between untransduced H226 cells and BAP1 C91A transduced cells. #p<0.05 indicating significant difference between untransduced H226 cells and BAP1 C91A transduced cells.
as §5

[17] = test system: H2804; test: rTRAIL response, viability assay, H2804; assay type: cell-based, Human; conditions: BAP1 Essential Splice, heterozygous
Procedure: as §1, §2, §3

[18] = test system: H2591; test: rTRAIL response, viability assay, H2591; assay type: cell-based, Human; conditions: BAP1 Wild-type
Procedure: as §1, §2, §3

[19] = test system: BB65RCC; test: rTRAIL viability, renal cell line BB65RCC; assay type: cell-based; conditions: BAP1 wild-type
From the text: as §4

B1: rTRAIL: recombinant protein that activates the TRAIL pathway by binding to TRAIL-R1 (DR 4) and TRAIL-R2 (DR 5) (protein, UniProt P50591 1-281, looked up)
Tumor necrosis factor ligand …: MAMMEVQGGPSLGQTCVLIVIFTVLLQSLCVAVTYVYFTNELKQMQDKYSKSGIACFLKEDDSYWDPNDEESMNSPCWQVKWQLRQLVRKMILRTSEETISTVQEKQQNISPLVRERGPQRVAAHITGTRGRSNTLSSPNSKNEKALGRKINSWESSRSGHSFLSNLHLRNGELVIHEKGFYYIYSQTYFRFQEEIKENTKNDKQMVQYIYKYTSYPDPILLMKSARNSCWSKDAEYGLYSIYQGGIFELKENDRIFVSVTNEHLIDMDHEASFFGAFLVG
With B1 the rTRAIL response [1] was “Resistant”, the rTRAIL response ([2]; BAP1 Wild-type) was “Resistant” and the TRAIL sensitivity ([2]; BAP1 wild-type and ASXL3 mutant (truncating mutation)) was “sensitive”. For the same molecule, the rTRAIL response [3] was “Resistant”, the “fraction of cells stained with Annexin V” value [4] was “increased fraction of cells stained with the apoptotic marker Annexin V” and the “response to rTRAIL (viability)” value [5] was “sensitivity”. The rTRAIL response [6] was “Resistant”, the rTRAIL response [7] was “Resistant” and the “response to TRAIL (viability)” value [8] was “resistant”. For the same molecule, the rTRAIL response [9] was “Sensitive**”, the rTRAIL response [10] was “Sensitive*” and the rTRAIL response [11] was “Resistant”. The “TRAIL sensitivity after ablation of BAP1 with lentiviral shRNA vs parental line” value [12] was “shift towards increased sensitivity”, the rTRAIL response [13] was “Resistant” and the “response to TRAIL (viability)” value [14] was “resistant”. For the same molecule, the rTRAIL response [15] was “Resistant”, the “sensitivity of H226 cells to cell death-inducing ligand, dependence on BAP1 catalytic domain” value ([16]; 100 ng/ml, 24 hours, untransduced, BAP1-expressing and catalytically dead BAP1-expressing H226) was “regulates the sensitivity” and the “cell death relative to BAP1 null line” value ([16]; BAP1 expressing H226 cell line, dose range of TRAIL) was “significantly reduced”. For the same molecule, the cell death ([16]; BAP1 null NCI-H226, dose range of TRAIL) was “increased cell death”, the rTRAIL response [17] was “Sensitive” and the rTRAIL response [18] was “Resistant”. For the same molecule, the “response to TRAIL (viability)” value [19] was “resistant”.
